First the molecules themselves.
B1: CPEB3 Ribozyme (parent)
chain: UAACAGGGGGCCACAGCAGAAGCGUUCACGUCGCAGCCCCUGUCAGAUUCUGGUGAAUCUGCGAAUUCUGCUGUAUAUCUC

In this series the parent is B1. The experiment in a line: self-cleavage, relative activity (ratio to wild type); higher = more cleavage; in vitro, sequencing. The method in brief:
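Libraries of CPEB3 self-cleaving ribozyme mutants came from rounds of error-prone PCR and carried barcodes, which DNA sequencing matched to variants. In vitro transcription used T7 RNA polymerase at 37°C for 5 hours, with a further 15 min in DNase I before EDTA stopped the reaction; the ribozymes cleaved during both steps. The RNA was reverse transcribed with template switching and sequenced on Illumina. Relative activity is the cleaved/total read fraction of a variant divided by that of the unmutated ribozyme, averaged over three batches with at least 5 reads.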
With A5C U41A, the self-cleavage is 0.28. As to A5C U41G, the self-cleavage was determined as 0.35. Turning to A5G U25A, the self-cleavage is 0.42.

Take A5G U25G: the self-cleavage came out at 0.55. Then A5G U25C, with 0.39. As for A5C C50A, the self-cleavage amounted to 0.8.

As for A5C A56G, the self-cleavage turned out to be 0.75. Regarding A5G U41A, the self-cleavage is 0.32. In the case of A5G U41C it was 0.5. Turning to A5G U41G, the self-cleavage amounted to 0.28. Regarding A5G C59U, the self-cleavage was 0.65. With A5G C59A, the self-cleavage came to 0.2. In the case of A5C U78C it was 0.89; in that of C4U G30A, 0.22. In the case of C4U C23G it was 0.53; in that of C4U G63U, 1.23; in that of A5C A47G, 0.78. In the case of A5C A47U it was 0.53; in that of A5G G63U, 0.95. Take A5G G63C: the self-cleavage is 0.5. In the case of A5G G63A it was 0.61. For C4U A18U, the self-cleavage was 0.73.

As to C4U A28U, the self-cleavage was 1.08. Regarding C4U A28G, the self-cleavage amounted to 1.03.

For A5G C79U, the self-cleavage was found to be 0.92.

With A5G C79A, the self-cleavage was 1.01. As for C4G U66A, the self-cleavage was 0.79.

Consider C4U U48C, for which the self-cleavage was determined as 0.99. In the case of A5C U67A it was 0.48; in that of A5C U67G, 0.27; in that of A5C U67C, 0.22. With A5G U72G, the self-cleavage came out at 0.79.

Regarding A5G U72C, the self-cleavage worked out at 0.77. A5G U72A: the self-cleavage is 0.48.

Consider A5C U58C, for which the self-cleavage was determined as 0.58. In the case of A5C U58A, the self-cleavage was determined as 0.49. On to A5G U60A, for which the self-cleavage was 0.31.

With A5G U60G, the self-cleavage came out at 0.35.

Consider A5G U60C, for which the self-cleavage was 0.36. For the variant A5G G22A, the self-cleavage came out at 0.24. For the variant A5G G22C, the self-cleavage was determined as 0.34. Regarding C4U A45G, the self-cleavage came out at 1.25. For C4U A45U, the self-cleavage worked out at 0.47.

Regarding A5C U31C, the self-cleavage came to 0.8. For the variant A5C U31A, the self-cleavage was 0.75. Then A5G U58C, with 0.43; and A5G U58A, with 0.24. In the case of A5C A45U it was 0.59; in that of A5C A45G, 0.7. Regarding A5G G16U, the self-cleavage amounted to 0.54. For A5G G16A, the self-cleavage is 0.57.

Consider C4U A5G, for which the self-cleavage turned out to be 0.84. Consider A5G C62A, for which the self-cleavage turned out to be 0.22. Then A5G C62U, with 0.35; and A5G C62G, with 0.14. On to A5G A64G, for which the self-cleavage was determined as 0.58.

Take A5G A64U: the self-cleavage is 0.35. As to A5C C29U, the self-cleavage was 0.42. As for C4G U51C, the self-cleavage was found to be 1.12.

C4U U78C: the self-cleavage was 1.14. Take C4U U78A: the self-cleavage worked out at 0.9. For A5C, the self-cleavage came out at 0.98. For the variant A5G, the self-cleavage came out at 0.74. Then A5C U66C, with 0.54. Take C4U U54C: the self-cleavage came to 1.15. As to C4U U54A, the self-cleavage stood at 1.18. On to C4U G42A, for which the self-cleavage is 0.32. Take A5G U66C: the self-cleavage stood at 0.38. For the variant A5G U66A, the self-cleavage amounted to 0.23. With A5G U66G, the self-cleavage was found to be 0.44.

Take A5G C17U: the self-cleavage amounted to 0.47.

On to A5G C17A, for which the self-cleavage amounted to 0.3. Regarding C4U A56G, the self-cleavage came to 1.06. In the case of A5G C50U it was 0.5. Regarding A5C U51C, the self-cleavage amounted to 0.6. As to A5G G42C, the self-cleavage was determined as 0.49. A5G G42A: the self-cleavage is 0.4. Take A5C C17A: the self-cleavage turned out to be 0.19. On to A5G G8A, for which the self-cleavage was 0.23. A5G G8U: the self-cleavage was 0.46. For A5G C81A, the self-cleavage was 1.1. Take C4U U69C: the self-cleavage was found to be 0.86. As for A5G C34G, the self-cleavage came to 0.52. In the case of A5C U69G, the self-cleavage came to 0.67. As to A5C U69C, the self-cleavage came to 0.59. Consider A5C U69A, for which the self-cleavage came out at 0.67. On to A5G G46U, for which the self-cleavage came to 0.4.

As to A5G G33C, the self-cleavage was 0.38. As to A5G G33A, the self-cleavage worked out at 0.24. On to A5G G33U, for which the self-cleavage was 0.43. C4U U72C: the self-cleavage turned out to be 1.12. Take C4U U72A: the self-cleavage worked out at 1.01. Turning to A5G A18G, the self-cleavage was determined as 0.5. For A5G A18C, the self-cleavage was found to be 0.48. Turning to A5G A18U, the self-cleavage came out at 0.33. For the variant C4U G33A, the self-cleavage came to 0.37. Regarding A5C C68G, the self-cleavage came to 0.23. For the variant A5G A57C, the self-cleavage came to 0.28.

With A5G A57G, the self-cleavage was found to be 0.64. With A5G A57U, the self-cleavage is 1.04. On to A5C A57C, for which the self-cleavage came to 0.52. Consider A5C A57G, for which the self-cleavage worked out at 0.9. With C4U G52A, the self-cleavage turned out to be 1.26.

Consider A5C G36A, for which the self-cleavage was found to be 0.31. A5G C32U: the self-cleavage was determined as 0.48.

For A5G C32A, the self-cleavage was determined as 0.28. As for A5G C32G, the self-cleavage was 0.39.

A5C G10A: the self-cleavage worked out at 0.09.

As for A5G C68A, the self-cleavage came out at 0.46. On to A5C G9A, for which the self-cleavage was found to be 0.41.

Regarding A5C G9U, the self-cleavage came to 0.52. For the variant C4U G9U, the self-cleavage stood at 0.17. A5C U54C: the self-cleavage was determined as 1.09. Turning to A5C U54G, the self-cleavage was 0.81.

A5G U26G: the self-cleavage was found to be 0.55. Turning to A5G U26C, the self-cleavage amounted to 0.44.

As for A5G U26A, the self-cleavage was 0.56. For A5G C23U, the self-cleavage was 0.36. Regarding A5G C23G, the self-cleavage came to 0.61.

For the variant A5G G36U, the self-cleavage came to 0.72. Take A5G G36A: the self-cleavage amounted to 0.29. As for A5G U76A, the self-cleavage was 0.85. In the case of C4U U60A it was 0.95; in that of C4U U60C, 0.75. Then C4U U60G, with 0.86; and C4G U67C, with 0.29. Consider A5C G63U, for which the self-cleavage was determined as 0.91. As for A5C G63C, the self-cleavage came out at 0.95. Turning to A5G C12U, the self-cleavage stood at 1.12.

With A5G C12A, the self-cleavage came out at 0.4. Turning to A5G A21U, the self-cleavage is 0.33.

A5G A21G: the self-cleavage is 0.43. Regarding A5G A21C, the self-cleavage amounted to 0.39. C4U U66C: the self-cleavage was 0.59.

Take A5C A13G: the self-cleavage came to 1.07.

With A5C A13U, the self-cleavage turned out to be 1.22. In the case of A5G G30U it was 0.11; in that of A5G G30A, 0.51. With A5C A65G, the self-cleavage was found to be 0.44.

Take A5G U31C: the self-cleavage was 0.48. Take A5G U31G: the self-cleavage was 0.47. For A5G U31A, the self-cleavage worked out at 0.41. For C4U G55U, the self-cleavage was found to be 1.28. Consider A5C A64G, for which the self-cleavage was determined as 1. Turning to A5C A64U, the self-cleavage was 1. Then C4G U60C, with 0.68.

For C4U A47G, the self-cleavage amounted to 1.15.

Consider A5C A75G, for which the self-cleavage came to 0.69. With A5G U67A, the self-cleavage is 0.39. Turning to A5G U67C, the self-cleavage amounted to 0.34. Regarding A5C U60C, the self-cleavage was 0.64. A5C U60A: the self-cleavage was found to be 0.64. In the case of A5C U60G it was 0.67; in that of C4U A21G, 0.89; in that of A5G U51G, 0.68.

Turning to A5G U51C, the self-cleavage came out at 0.68.

Turning to A5G U51A, the self-cleavage turned out to be 0.63. In the case of A5C G55U, the self-cleavage was determined as 1.13. For A5G G9A, the self-cleavage was found to be 0.39.

Consider A5G G7U, for which the self-cleavage was determined as 0.39. In the case of A5G G7C, the self-cleavage amounted to 0.5. A5G G7A: the self-cleavage stood at 0.6. In the case of A5G G55A it was 0.37; in that of A5G G55U, 0.26; in that of A5G G55C, 0.65. A5C C34G: the self-cleavage is 0.41. As to A5C C34U, the self-cleavage worked out at 0.47.
